This passage reports Kd results from paper PMC4990970 (2016).

The term Kd denotes a measure of binding affinity in units of concentration. A higher Kd goes with weaker binding.

Assay [1] has as its target AtBAG5/holo-CaM (Arabidopsis thaliana (AtBAG5); Homo …). The assay can be described thus: ITC; with Ca2+; AtBAG5 pre-bound to holo-CaM.
The target in assay [2] is AtBAG5-CaM (with Ca2+). The assay can be described thus: ITC; with Ca2+ (AtBAG5/holo-CaM complex). Background: Isothermal titration calorimetry measures the heat released or taken up as one component is titrated into another.
The target of assay [3] is AtBAG5-IQR (AtBAG5-long with Ile57, Gln58 and Arg62 substituted with alanine) (Arabidopsis thaliana, UniProt O65373 49-153, Ile57 to alanine | Gln58 to alanine | Arg62 to alanine). Kind of assay: ITC.

B1: ATPase domain of human Hsp70 (called Hsc70 in the results) (domain or fragment)
chain: not shown
modifications: CaM Ca2+-saturated (holo, 4 Ca2+; 10 mM CaCl2). AtBAG5-long limits are printed. CaM is full length with the initiator Met removed by convention. CaM species is not printed: Met144 in mature numbering fits vertebrate CaM rather than plant CaM (Val144).
B1 yielded a dissociation constant (Kd) in assay [1] of 53.3 µM.

B2: ATPase domain of human Hsp70 (called Hsc70 in the results) (domain or fragment)
chain: not shown
Take B2: the Kd in assay [2] came out at 53.3 µM; in assay [3], 480 nM.
